Measurements taken from US20240409660A1.
Values belong to the molecule of their own block, whether it stands above or below them.

Tests used:
[1] = target: human CD28, full-length, expressed on Expi293 cells (human) (UniProt P10747); test: flow cytometry, transfected cells
[2] = target: human PD-L1, full-length, expressed on Expi293 cells (human) (UniProt Q9NZQ7); test: flow cytometry, transfected cells
human PD-L1 (human) = human PD-L1 (human) (UniProt Q9NZQ7); test: flow cytometry, transfected cells
human CD28 (human) = human CD28 (human) (UniProt P10747); test: flow cytometry, transfected cells
[3] = target: human CD28, full length, expressed on transfected Expi293 cells (human) (UniProt P10747); test: flow cytometry, Expi293 cells transfected with human CD28

- MFI [1]: 7920 MFI
Molecule: stacked IgV-Fc fusion: domain 1 ICOSL WT, domain 2 NKp30 WT

- MFI [1]: 1230 MFI
- MFI [2]: 2660 MFI
Molecule: stacked IgV-Fc fusion: domain 1 CD80 WT, domain 2 ICOSL WT

- MFI (human PD-L1 (human)): 1230 MFI
Molecule: stacked IgV-Fc: Domain 1 CD80 WT / Domain 2 ICOSL WT (Fc fusion)

- MFI (human PD-L1 (human)): 3000 MFI
Molecule: stacked IgV-Fc: Domain 1 ICOSL WT / Domain 2 CD80 WT (Fc fusion)

- MFI [1]: 6340 MFI
Molecule: stacked IgV-Fc fusion: domain 1 NKp30 WT, domain 2 ICOSL WT

- parental ratio (human CD28 (human)): 0.49
Molecule: variant ICOSL ECD-Fc T43A, N52H, N57Y, L74Q, D89G, V110D, F172S (Fc fusion)

- MFI ratio to WT CD80 (parental ratio) [1]: 0.1
Molecule: CD80 K36G/K37Q/M38I/L40M/F59L/E81V/L85R/K89N/A91T/F92P/K93V/R94L/E99G/T130A/N149S ECD-Fc (Fc fusion)

- MFI ratio to parental (WT ICOSL) [3]: 0.89
B1: ICOSL F120S/Y152H/N201S variant ECD-Fc fusion (Fc fusion)
chain: DTQEKEVRAMVGSDVELSCACPEGSRFDLNDVYVYWQTSESKTVVTYHIPQNSSLENVDSRYRNRALMSPAGMLRGDFSLRLFNVTPQDEQKFHCLVLSQSLGFQEVLSVEVTLHVAANSSVPVVSAPHSPSQDELTFTCTSINGYPRPNVHWINKTDNSLLDQALQNDTVFLNMRGLYDVVSVLRIARTPSVNIGCCIESVLLQQNLTVGSQTGNDIGERDKITENPVSTGEKNAATAAAEPKSSDKTHTCPPCPAPELLGGPSVFLFPPKPKDTLMISRTPEVTCVVVDVSHEDPEVKFNWYVDGVEVHNAKTKPCEEQYGSTYRCVSVLTVLHQDWLNGKEYKCKVSNKALPAPIEKTISKAKGQPREPQVYTLPPSREEMTKNQVSLTCLVKGFYPSDIAVEWESNGQPENNYKTTPPVLDSDGSFFLYSKLTVDKSRWQQGNVFSCSVMHEALHNHYTQKSLSLSPGK
